For two substances, stoichiometry N results are on record in article PMC6315561.

In experiment [1] the target is Full baseplate complex of phage Phi4.2 (Dit, Tal, RBP1, RBP2) (Lactococcus phage Phi4.2). The experiment in a line: negative stain electron microscopy; purified baseplate complexes at 0.03 mg/mL on carbon-coated grids, Ca2+ in the protein buffer; baseplate to back-to-back dimer of baseplates.
In experiment [2] the target is ΔRBP1_(Phi4.2) baseplate complex (Dit, Tal, RBP2) (Lactococcus phage Phi4.2). The description is as above.

In the case of “Full baseplate complex of phage Phi4.2 (Dit, Tal, RBP1, RBP2)”, in experiment [1], the stoichiometry N came out at 2.

Take “ΔRBP1_(Phi4.2) baseplate complex (Dit, Tal, RBP2)”: in experiment [2], the stoichiometry N is 2.
